Source: patent US20050037969A1 (ARBOR VITA, published 2005)
Ends that are not written are not given here. * marks the point of attachment. Biotin = O=C1N[C@H]2[C@H](CS[C@H]2CCCCC(=O)*)N1

Tests used:
Experiment in all cases: A/G assays
[1] = biological target: T1, GST-CASK PDZ domain fusion protein (Homo sapiens, UniProt O14936 486-575)
T1 construct: also called Homo sapiens CASK protein
T1 sequence: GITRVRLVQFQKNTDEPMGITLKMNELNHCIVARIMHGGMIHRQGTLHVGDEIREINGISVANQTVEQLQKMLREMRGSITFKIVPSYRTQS

[2] = biological target: T2, GST-PTN-4 PDZ domain fusion protein (Homo sapiens (Human), UniProt P29074 517-605)
T2 construct: also called protein-tyrosine phosphatase meg1; not shown: glutathione S-transferase encoded by vector pGEX-3X (Pharmacia)
T2 sequence: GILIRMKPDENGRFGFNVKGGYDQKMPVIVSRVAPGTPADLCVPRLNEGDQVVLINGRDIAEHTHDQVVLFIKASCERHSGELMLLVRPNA

[3] = biological target: T3, GST-prIL16 fusion protein (PDZ domains 1-2) (Homo sapiens (Human), UniProt Q14005 1111-1324)
T3 construct: also called putative interleukin 16 precursor; not shown: glutathione S-transferase encoded by vector pGEX-3X (Pharmacia)
T3 sequence: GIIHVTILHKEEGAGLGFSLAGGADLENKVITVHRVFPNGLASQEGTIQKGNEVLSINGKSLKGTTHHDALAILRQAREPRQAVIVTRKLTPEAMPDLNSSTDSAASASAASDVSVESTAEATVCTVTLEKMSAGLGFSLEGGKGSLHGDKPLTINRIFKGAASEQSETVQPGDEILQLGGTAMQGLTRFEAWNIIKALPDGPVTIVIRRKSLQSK

[4] = biological target: T4, GST-cytohesin binding protein PDZ domain fusion protein (Homo sapiens (Human), UniProt O60759 74-165)
T4 construct: also called CBP; not shown: glutathione S-transferase encoded by vector pGEX-3X (Pharmacia)
T4 sequence: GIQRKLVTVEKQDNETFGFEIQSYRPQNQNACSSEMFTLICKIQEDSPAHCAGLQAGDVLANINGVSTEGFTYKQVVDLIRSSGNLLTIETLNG

[5] = biological target: T5, GST-RGS12 PDZ domain fusion protein (human, UniProt O14924 17-85)
T5 construct: also called human regulator of G-protein signalling 12; not shown: glutathione S-transferase encoded by vector pGEX-3X (Pharmacia)
T5 sequence: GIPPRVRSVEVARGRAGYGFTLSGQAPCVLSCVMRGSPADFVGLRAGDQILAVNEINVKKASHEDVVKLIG

[6] = biological target: T6, GST-DLG5 (p-dlg) PDZ domain fusion protein (Human, UniProt Q8TDM6 1343-1583)
T6 construct: also called Human discs large protein p-dlg; not shown: glutathione S-transferase encoded by vector pGEX-3X (Pharmacia)
T6 sequence: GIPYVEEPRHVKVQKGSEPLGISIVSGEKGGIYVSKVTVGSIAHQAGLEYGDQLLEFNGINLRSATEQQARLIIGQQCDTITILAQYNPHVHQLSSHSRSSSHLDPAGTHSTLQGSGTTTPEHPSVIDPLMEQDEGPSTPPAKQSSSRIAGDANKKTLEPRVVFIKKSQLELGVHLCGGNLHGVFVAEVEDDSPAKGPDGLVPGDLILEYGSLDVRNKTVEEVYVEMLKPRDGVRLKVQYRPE

[7] = biological target: T7, GST-TIAM1 PDZ domain fusion protein (Homo sapiens (Human), UniProt Q13009 845-931)
T7 construct: also called TLAM1; T-lymphoma invasion and metastasis inducing protein 1; not shown: glutathione S-transferase encoded by vector pGEX-3X (Pharmacia)
T7 sequence (Q13009 other isoform, or with tags, fused parts or gaps): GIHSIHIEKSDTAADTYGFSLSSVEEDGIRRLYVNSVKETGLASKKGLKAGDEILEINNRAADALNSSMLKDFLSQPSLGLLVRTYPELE

[8] = biological target: T8, GST-DVL1 PDZ domain fusion protein (human, UniProt O14640 247-339)
T8 construct: also called human dishevelled segment polarity protein homolog; not shown: glutathione S-transferase encoded by vector pGEX-3X (Pharmacia)
T8 sequence: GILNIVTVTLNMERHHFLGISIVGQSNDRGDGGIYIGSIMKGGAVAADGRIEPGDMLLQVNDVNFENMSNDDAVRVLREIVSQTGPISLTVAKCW

[9] = biological target: T9, GST-KIAA0303 PDZ domain fusion protein (Homo sapiens (Human), UniProt O15021 1138-1228)
T9 construct: also called K303; not shown: glutathione S-transferase encoded by vector pGEX-3X (Pharmacia)
T9 sequence: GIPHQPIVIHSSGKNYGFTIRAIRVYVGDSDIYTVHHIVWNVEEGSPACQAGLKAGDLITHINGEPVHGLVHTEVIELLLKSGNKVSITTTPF

[10] = biological target: T10, TAX-IP2L PDZ-GST fusion protein (Homo sapiens (Human), UniProt Q8TF64 107-197)
T10 construct: Order of GST and PDZ part and limits not seen in the excerpts
T10 sequence: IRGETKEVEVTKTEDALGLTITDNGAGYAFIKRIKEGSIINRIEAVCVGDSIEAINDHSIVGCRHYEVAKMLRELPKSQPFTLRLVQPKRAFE

[11] = biological target: T11, MINT3 PDZ-GST fusion protein
T11 construct: Order of GST and PDZ part and limits not seen in the excerpts
T11 chain: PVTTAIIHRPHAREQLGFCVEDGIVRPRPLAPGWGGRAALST

[12] = biological target: T12, ConEn PDZ-GST fusion protein (Homo sapiens (Human), UniProt Q969H4 193-287)
T12 construct: The label ConEn is not explained in the excerpts
T12 sequence: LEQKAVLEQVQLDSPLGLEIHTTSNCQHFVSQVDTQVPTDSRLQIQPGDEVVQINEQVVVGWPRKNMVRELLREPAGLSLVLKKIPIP

[13] = biological target: T13, GEF PDZ-GST fusion protein (Homo sapiens (Human), UniProt Q8TEU7 293-400)
T13 construct: The label GEF is not explained in the excerpts
T13 sequence: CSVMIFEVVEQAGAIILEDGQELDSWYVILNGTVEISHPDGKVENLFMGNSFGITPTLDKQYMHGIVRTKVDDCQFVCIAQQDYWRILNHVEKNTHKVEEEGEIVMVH

[14] = biological target: T14, NOS1 PDZ-GST fusion protein (Homo sapiens (Human), UniProt P29475 11-100)
T14 construct: Order of GST and PDZ part and limits not seen in the excerpts
T14 sequence (P29475 11-100 limits assumed): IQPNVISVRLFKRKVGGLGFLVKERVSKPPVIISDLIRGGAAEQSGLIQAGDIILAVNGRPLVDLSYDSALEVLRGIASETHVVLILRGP

Measured: binding result

Biotin-AWDDSARAAGGQGLHVTAL [LPAP C-terminal peptide AA30L, biotinylated]
not listed: [14]
no binding: all other assays above

B1: PAG C-terminal peptide AA58L, biotinylated (peptide)
peptide: Biotin-KENDYESISDLQQGRDITRL
notes: also called Phosphoprotein Associated with GEMs
no binding: all assays above

Biotin-KKGTYLTDETHREVKFTSL [CD46 (Form 1) C-terminal peptide AA10L, biotinylated]
no binding: all assays above

Biotin-KDSRPSFVGSSSGHTSTTL (also called CDW128E (IL8RB)) [CDW128B (IL8RB) C-terminal peptide AA29.2L, biotinylated]
not listed: [5]
no binding: all other assays above

B2: Spectrin (beta) C-terminal peptide AA32L, biotinylated (peptide)
peptide: Biotin-SFPPCGHRENVPGQSLVSFV
notes: Marked (S), sticky; also called Spectrin beta (S); Spectrin β
no binding: [1] | [3] | [5] | [7] | [8]

Biotin-TTNNNPNSAVNIKKIFTDV [KV1.3 C-terminal peptide AA33L, biotinylated]
not listed: [5] | [8]
no binding: all other assays above

Biotin-LASKSAEEGKQIPDSLSTDL [DOCK2 C-terminal peptide AA40L, biotinylated]
no binding: all assays above

Biotin-SVFSIPTLWSPWPPSSSSQL (also called CD3η; CD3-eta) [CD3n C-terminal peptide AA4L, biotinylated]
no binding: all assays above

Biotin-ARKANMKGSYSLVEAQKSKV (also called CD106) [VCAM1 C-terminal peptide AA17L, biotinylated]
not listed: [7] | [9]
no binding: all other assays above

Biotin-PSWRRSSLSESENATSLTTF (also called CXCR5) [BLR-1 C-terminal peptide AA45L, biotinylated]
no binding: all assays above
